Test results as given in patent US20250206809A1 (UNIVERSITY OF MASSACHUSETTS, published 2025).

What was measured:
[1] = molecular target: T1, MBP-CfaE-N (recombinant N-terminal adhesin domain of CfaE fused to an MBP tag) (enterotoxigenic Escherichia coli, UniProt P0AEX9 27-392 = MBP, Biotinylated for SPR; FITC or Alexa Fluor labelled for yeast flow cytometry.); experiment: SPR, Biacore T200, CfaE on CM5 chip, VHH injected, 25 °C, 1:1 model
T1 construct: It was used unlabelled in ELISA, 'biotinylated' on the chip in the SPR methods, and FITC/Alexa-labelled in yeast flow cytometry; also called recombinant N-terminal truncated CfaE protein; N-terminal truncation of CfaE; not shown: MBP tag and linker of vector pMAL-C5X, and the donor strand complement
T1 sequence: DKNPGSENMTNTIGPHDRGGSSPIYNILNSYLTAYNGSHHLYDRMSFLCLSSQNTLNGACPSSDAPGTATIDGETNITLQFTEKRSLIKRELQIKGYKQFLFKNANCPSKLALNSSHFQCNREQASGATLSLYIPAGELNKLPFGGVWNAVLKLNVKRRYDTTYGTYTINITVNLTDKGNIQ

CS14 = molecular target: T2, CS14; experiment: ELISA: plate coated with the recombinant antigen, purified VHH titrated (y axis printed as absorbance at 405, the text says OD450)
T2 construct: not the CS14 on an ETEC strain; also called recombinant CS14; N-terminal adhesin domain of CsuD with MBP tag; not shown: MBP tag from vector pMAL-C5X, with any linker or donor-strand complement
T2 chain: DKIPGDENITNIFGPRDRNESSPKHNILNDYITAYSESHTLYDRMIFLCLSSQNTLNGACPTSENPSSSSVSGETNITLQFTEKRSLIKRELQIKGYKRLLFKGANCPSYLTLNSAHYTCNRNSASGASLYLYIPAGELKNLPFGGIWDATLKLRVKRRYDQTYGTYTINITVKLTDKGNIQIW

[2] = molecular target: T3, CFA/I (adhesin CfaE) on ETEC strain H10407 (enterotoxigenic Escherichia coli strain …, UniProt P25734 1-360); experiment: cell-based or functional assay
T3 sequence (looked up): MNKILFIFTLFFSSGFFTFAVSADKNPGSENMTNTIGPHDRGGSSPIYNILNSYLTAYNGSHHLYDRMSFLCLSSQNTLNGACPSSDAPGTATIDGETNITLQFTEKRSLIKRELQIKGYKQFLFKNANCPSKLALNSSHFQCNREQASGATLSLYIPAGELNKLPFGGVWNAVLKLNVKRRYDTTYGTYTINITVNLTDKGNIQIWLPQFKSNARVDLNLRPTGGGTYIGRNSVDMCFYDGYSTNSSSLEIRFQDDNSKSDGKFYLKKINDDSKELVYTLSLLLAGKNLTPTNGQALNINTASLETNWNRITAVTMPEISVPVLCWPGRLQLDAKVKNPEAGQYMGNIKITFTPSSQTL

CS5 on an ETEC strain = CS5 on an ETEC strain (enterotoxigenic Escherichia coli); experiment: cell-based or functional assay
CS1 on an ETEC strain = CS1 on an ETEC strain (enterotoxigenic Escherichia coli); experiment: cell-based or functional assay
CS21 on an ETEC strain = CS21 on an ETEC strain (enterotoxigenic Escherichia coli); experiment: cell-based or functional assay
CS6 on an ETEC strain = CS6 on an ETEC strain (enterotoxigenic Escherichia coli); experiment: cell-based or functional assay
CS19 on an ETEC strain = CS19 on an ETEC strain (enterotoxigenic Escherichia coli); experiment: cell-based or functional assay
CS3 on an ETEC strain = CS3 on an ETEC strain (enterotoxigenic Escherichia coli); experiment: cell-based or functional assay
CS4 on an ETEC strain = CS4 on an ETEC strain (enterotoxigenic Escherichia coli); experiment: cell-based or functional assay
CS17 on an ETEC strain = CS17 on an ETEC strain (enterotoxigenic Escherichia coli); experiment: cell-based or functional assay
CS14 on an ETEC strain = CS14 on an ETEC strain (enterotoxigenic Escherichia coli); experiment: cell-based or functional assay
CS2 on an ETEC strain = CS2 on an ETEC strain (enterotoxigenic Escherichia coli); experiment: cell-based or functional assay
CS19 = molecular target: T4, CS19; experiment: ELISA: plate coated with the recombinant antigen, purified VHH titrated (y axis printed as absorbance at 405, the text says OD450)
T4 construct: not the CS19 on an ETEC strain; also called recombinant CS19; N-terminal adhesin domain of CsdD with MBP tag; not shown: MBP tag from vector pMAL-C5X, with any linker or donor-strand complement
T4 chain: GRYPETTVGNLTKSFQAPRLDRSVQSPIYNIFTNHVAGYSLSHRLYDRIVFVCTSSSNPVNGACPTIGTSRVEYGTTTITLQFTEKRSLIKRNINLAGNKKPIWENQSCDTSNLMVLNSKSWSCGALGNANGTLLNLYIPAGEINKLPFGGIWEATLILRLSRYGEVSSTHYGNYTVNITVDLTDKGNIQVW

B1: VHH antibody 2R23 (monomeric nanobody) (VHH)
VHH: QVQLQESGGGLVQAGGSLRLSCAASGYIFWSYGYMGWYRQAPGKERELVATISRGGTTNYADSVKGRFTISRDNAKNTVYLQMNSLKPEDTAVYYCAAGRYAFGYFKYWGQGTQVTVSS
notes: Yeast-library clone, expressed in the E. coli periplasm
- Kd [1]: 9.06 nM
- koff [1]: 64.6 s⁻¹
- kon [1]: 7.13e+09 M⁻¹ s⁻¹
- binding result (CS14): binds
- MRHA IC100 [2]: 50 µg/mL
- MRHA IC100 (CS5 on an ETEC strain): 12.5 µg/mL
- MRHA IC100 (CS1 on an ETEC strain): 200 µg/mL
- MRHA IC100 (CS21 on an ETEC strain): 25 µg/mL
- MRHA IC100 (CS6 on an ETEC strain): 12.5 µg/mL
- MRHA IC100 (CS19 on an ETEC strain): 200 µg/mL
- MRHA IC100 (CS3 on an ETEC strain): 100 µg/mL
- MRHA IC100 (CS4 on an ETEC strain): 25 µg/mL
- MRHA IC100 (CS17 on an ETEC strain): 6.25 µg/mL
- MRHA IC100 (CS14 on an ETEC strain): 25 µg/mL
- MRHA IC100 (CS2 on an ETEC strain): 200 µg/mL

B2: VHH antibody 2R215 (monomeric nanobody) (VHH)
VHH: QVQLQESGGGLVQAGGSLRLSCAASGNIFQDAEMGWYRQAPGKEREFVATIAYGGNTNYADSVKGRFTISRDNAKNTVYLQMNSLKPEDTAVYYCAVYTGVYYDRTTGGYVAFEYWGQGTQVTVSS
notes: Yeast-library clone, expressed in the E. coli periplasm and purified by Ni-NTA; also called monomeric 2R215; monomeric VHH 2R215
- binding result (CS19): binds
- MRHA IC100 [2]: 25 µg/mL
- MRHA IC100 (CS5 on an ETEC strain): 6.25 µg/mL
- MRHA IC100 (CS1 on an ETEC strain): 200 µg/mL
- MRHA IC100 (CS21 on an ETEC strain): 25 µg/mL
- MRHA IC100 (CS6 on an ETEC strain): 25 µg/mL
- MRHA IC100 (CS19 on an ETEC strain): 200 µg/mL
- MRHA IC100 (CS3 on an ETEC strain): 100 µg/mL
- MRHA IC100 (CS4 on an ETEC strain): 100 µg/mL
- MRHA IC100 (CS17 on an ETEC strain): 6.25 µg/mL
- MRHA IC100 (CS14 on an ETEC strain): 200 µg/mL
- MRHA IC100 (CS2 on an ETEC strain): 6.25 µg/mL

B3: VHH antibody 1H4 (monomeric nanobody) (VHH)
VHH: EVQLVESGGGLVQAGGSLRLSCAASSRTFNHYNIGWFRQAPGKEREFAAAITWNGRSTLYADSVKGRFTISRDNAKNTVYLQMNSLKPEDTAVYYCATLTTWEHKWEYNSQGQGTQVTVSS
- MRHA IC100 [2]: 200 µg/mL
- MRHA IC100 (CS5 on an ETEC strain): 3.12 µg/mL
- MRHA IC100 (CS1 on an ETEC strain): 100 µg/mL
- MRHA IC100 (CS21 on an ETEC strain): 25 µg/mL
- MRHA IC100 (CS6 on an ETEC strain): 25 µg/mL
- MRHA IC100 (CS19 on an ETEC strain): 100 µg/mL
- MRHA IC100 (CS3 on an ETEC strain): 100 µg/mL
- MRHA IC100 (CS4 on an ETEC strain): 25 µg/mL
- MRHA IC100 (CS17 on an ETEC strain): 6.25 µg/mL
- MRHA IC100 (CS14 on an ETEC strain): 100 µg/mL
- MRHA IC100 (CS2 on an ETEC strain): 100 µg/mL

B4: VHH antibody 1D7 (monomeric nanobody) (VHH)
VHH: EVQLVESGGGLVQAGGSLTLSCAASERTFSYYVMAWFRQAPGKEREFVAGISMSGDSTKYADSVKGRFTISRDNAENTGYLQMNGLKPEDTAVYYCAADRDIRGNFRSWGRGTQVTVSS
- Kd [1]: 17.7 nM
- koff [1]: 0.0311 s⁻¹
- kon [1]: 1.75e+06 M⁻¹ s⁻¹
- MRHA IC100 [2]: 100 µg/mL
- MRHA IC100 (CS5 on an ETEC strain): 3.12 µg/mL
- MRHA IC100 (CS1 on an ETEC strain): 50 µg/mL
- MRHA IC100 (CS21 on an ETEC strain): 25 µg/mL
- MRHA IC100 (CS6 on an ETEC strain): 12.5 µg/mL
- MRHA IC100 (CS19 on an ETEC strain): 100 µg/mL
- MRHA IC100 (CS3 on an ETEC strain): 50 µg/mL
- MRHA IC100 (CS4 on an ETEC strain): 200 µg/mL
- MRHA IC100 (CS17 on an ETEC strain): 6.25 µg/mL
- MRHA IC100 (CS14 on an ETEC strain): 100 µg/mL
- MRHA IC100 (CS2 on an ETEC strain): 50 µg/mL
